# From article PMC3374797, “Intrinsically Unstructured Domain 3 of Hepatitis C Virus NS5A Forms a “Fuzzy Complex” with VAPB-MSP Domain Which Carries ALS-Causing Mutations” (PLoS ONE, 2012)
# Entries after “also recorded” stand apart in the source; their conditions may differ.
# Columns and labels:
# [1] = molecular target: T1, VAPB-MSP(1–125) (Homo sapiens, UniProt O95292); assay: NMR HSQC titration of 15N-VAPB-MSP(1-125) with NS5A fragments, Kd fitting; assay type: binding; set-up: His tag (N, cleaved yes); made in house; host or cells: Escherichia coli BL21 (DE3) Star
# T1 sequence (O95292 1-125): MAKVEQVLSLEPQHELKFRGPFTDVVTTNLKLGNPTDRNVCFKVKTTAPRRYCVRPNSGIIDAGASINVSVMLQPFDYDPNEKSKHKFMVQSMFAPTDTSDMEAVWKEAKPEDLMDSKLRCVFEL
# Description: (§1) NMR samples were prepared in 10 mM phosphate buffer in the presence of 10 mM DTT (pH 6.8). All NMR data were collected at 25°C on an 800-MHz Bruker Avance spectrometer equipped with a shielded cryoprobe as described before [70]–[73]. For HSQC characterization, samples were prepared at a protein concentration of 100 µM. For sequential assignments of NS5A-D3, triple-resonance NMR experiments including HNCACB and CBCA(CO)NH were acquired on a double-labeled sample at a protein concentration of ∼300 µM while for sequential assignments of NS5A-D3A, three-dimensional heteronuclear NMR experiments including HSQC-TOCSY and HSQC-NOESY were acquired on a ^15N-labeled sample at a protein concentration of ∼500 µM. NMR data were processed with NMRpipe and analyzed with NMRview.
# (§2) For NMR HSQC characterization of the binding interactions between NS5A and VAPB fragments/domains, two-dimensional ^1H-^15N HSQC spectra of the ^15N-labeled proteins were acquired at a protein concentration of 50 µM in the absence or presence of the unlabeled binding partners at different molar ratios. By superimposing the HSQC spectra at different molar ratios, the shifted or disappeared HSQC peaks could be identified and further assigned to the corresponding residues as we previously described, [67]–[70]. The degree of perturbation was reflected by an integrated chemical shift difference (CSD) calculated by the formula ((Δ^1H)^2+(Δ^15N)^2/5)^1/2 [73]. The CSD tracings were fitted by using the one binding site model to obtain residue-specific dissociation constants (Kd); which are summarized in Table 1.
# [2] = molecular target: T2, VAPB-MSP(1–125) T46I mutant (Homo sapiens, UniProt O95292, T46I); assay: NMR HSQC titration of 15N-VAPB-MSP(1-125) T46I mutant; assay type: binding
# T2 construct: chemical shifts of VAPB-MSP(1–125) T46I mutant in the presence of unlabeled NS5A-D3C; His tag (N, cleaved yes); made in house; host or cells: Escherichia coli BL21 (DE3) Star
# T2 sequence (O95292 1-125 T46I): as the sequence (O95292 1-125) above, with T46I counted along it
# Description: as §1, §2
# [3] = molecular target: T1, VAPB-MSP(1–125); assay: NMR titration
# [4] = molecular target: T1, VAPB-MSP(1–125); set-up: His tag (N, cleaved yes); made in house; host or cells: Escherichia coli BL21 (DE3) Star; conditions: molar ratio 1:2; ref [51]; cited from earlier work
# Text: NMR titration and docking results all reveal that the D3B peptide is able to occupy the MSP surface regions which are also critical for binding to EphA4 receptor as we previously characterized. […] Subsequently the EphA4 ligand-binding domain (LBD) was gradually titrated into this sample.
# [5] = molecular target: T1, VAPB-MSP(1–125); assay: NMR competition of EphA4 LBD with D3B for VAPB-MSP(1-125); assay type: binding; set-up: His tag (N, cleaved yes); made in house; host or cells: Escherichia coli BL21 (DE3) Star; conditions: MSP saturated by D3B at 1:4 (MSP/D3B); EphA4 at 1:10 (MSP:EphA4)
# Description: NMR titration and docking results all reveal that the D3B peptide is able to occupy the MSP surface regions which are also critical for binding to EphA4 receptor as we previously characterized. To confirm this, we first saturated the VAPB-MSP(1–125) by D3B at a molar ratio of 1∶4 (MSP/D3B). Subsequently the EphA4 ligand-binding domain (LBD) was gradually titrated into this sample.
# NMR samples were prepared in 10 mM phosphate buffer in the presence of 10 mM DTT (pH 6.8). All NMR data were collected at 25°C on an 800-MHz Bruker Avance spectrometer equipped with a shielded cryoprobe as described before [70]–[73]. For HSQC characterization, samples were prepared at a protein concentration of 100 µM. […] NMR data were processed with NMRpipe and analyzed with NMRview.
# For NMR HSQC characterization of the binding interactions between NS5A and VAPB fragments/domains, two-dimensional ^1H-^15N HSQC spectra of the ^15N-labeled proteins were acquired at a protein concentration of 50 µM in the absence or presence of the unlabeled binding partners at different molar ratios. […] The degree of perturbation was reflected by an integrated chemical shift difference (CSD) calculated by the formula ((Δ^1H)^2+(Δ^15N)^2/5)^1/2 [73]. […]
# [6] = system: VAPB-MSP T46I mutant; conditions: ref [51]; cited from earlier work
Compound,"Interaction (Yes/No) with VAPB-MSP(1-125) ([1]; 15N-VAPB-MSP(1-125), unlabeled NS5A fragment)",MSP residues whose HSQC peaks undergo gradual but significant shifts ([1]; molar ratio up to 1:4 (MSP/D3 peptide)),"Binding affinity to VAPB-MSP, in words ([1]; relative to D3 (and D3A, D3B))","HSQC perturbation of VAPB-MSP(1-125) ([1]; words, 50 µM 15N-labelled protein)",Interaction (Yes/No) with VAPB-MSP(1-125) T46I ([2]; 15N-VAPB-MSP(1-125) T46I),HSQC perturbation of T46I mutant ([2]; molar ratio up to 1:6 (T46I/D3B)),"Kd for T46I mutant, statement in words ([2]; shift tracings highly unsaturated, up to 1:6 (T46I/D3B))",Kd [3],residue-specific Kd (Asp116) [3],residue-specific Kd (Gln6) [3],residue-specific Kd (Gln91) [3],residue-specific Kd (Leu119) [3],residue-specific Kd (Met89) [3],residue-specific Kd (Val90) [3],residue-specific Kd (Val122) [3],HSQC perturbation of MSP by EphA4 LBD without D3B [4],HSQC perturbation of MSP by EphA4 LBD with pre-existence of D3B [5],Effect of T46I mutation on binding to EphA4 [6]
CSCC[C@H](NC(=O)[C@H](CO)NC(=O)[C@H](CO)NC(=O)[C@H](Cc1ccc(O)cc1)NC(=O)[C@H](CO)NC(=O)[C@H](CCC(=O)O)NC(=O)[C@H](C)NC(=O)[C@H](CC(=O)O)NC(=O)[C@H](CO)NC(=O)CN)C(=O)N1CCC[C@H]1C(=O)N1CCC[C@H]1C(=O)N[C@@H](CC(C)C)C(=O)N[C@@H](CCC(=O)O)C(=O)NCC(=O)N[C@@H](CCC(=O)O)C(=O)N1CCC[C@H]1C(=O)NCC(=O)N[C@@H](CC(=O)O)C(=O)N1CCC[C@H]1C(=O)N[C@@H](CC(=O)O)C(=O)N[C@@H](CC(C)C)C(=O)N[C@@H](CO)C(=O)N[C@@H](CC(=O)O)C(=O)NCC(=O)N[C@@H](CO)C(=O)N[C@@H](Cc1c[nH]c2ccccc12)C(=O)N[C@@H](CO)C(=O)N[C@H](C(=O)N[C@H](C(=O)N[C@@H](CO)C(=O)N[C@@H](CCC(=O)O)C(=O)N[C@@H](CCC(=O)O)C(=O)N[C@@H](C)C(=O)N[C@@H](CO)C(=O)N[C@@H](CCC(=O)O)C(=O)N[C@@H](CC(=O)O)C(=O)N[C@H](C(=O)N[C@H](C(=O)O)C(C)C)C(C)C)C(C)C)[C@@H](C)O [D3B],Yes,"Gln6, Met89-Val90-Gln91, Asp116, Leu119 and Val122",retains almost the same binding affinity and mode as the 89-residue D3,almost the same shifting pattern and similar amplitude,Yes/Weak,only a small set of T46I HSQC peaks were found to shift slightly of very small amplitude,impossible to fit out the CSD tracings to obtain Kd values,,,,,,,,,,,
NS5A-D3A(394–447) (domain or fragment),,,,,,,,8 µM,10.2 µM,11.5 µM,7.1 µM,7.7 µM,9.9 µM,7.2 µM,2.4 µM,,,
EphA4 LBD: 181-residue EphA4 ligand binding domain,,,,,,,,,,,,,,,,started to trigger peak shift and disappearance of the MSP residues,only several MSP peaks were observed to shift slightly,reduced affinity to EphA4; also recorded: considerably reduces the binding affinity to EphA4
NS5A-D3(359–447) (domain or fragment),,,,,,,,4.5 µM,6.2 µM,6.8 µM,2.4 µM,4.5 µM,5.2 µM,4.6 µM,1.7 µM,,,
